US20230074436A1 (DENALI THERAPEUTICS, published 2023)
Read-outs that look alike come from different tables or passages of the source.

Assays:
[1] = target: T1, human alpha-synuclein monomer (human, UniProt P37840 1-140); experiment: SPR (Biacore 8K), IgG captured on anti-human Fc, aSyn monomer injected
Description: (§1) Serial 3-fold dilutions of aSyn were injected at a flow rate of 30 μL/min. Each sample was analyzed using a 3-minute association and a 10-minute dissociation. After each injection, the chip was regenerated using 3 M MgCl₂. Binding response was corrected by subtracting the RU from a flow cell capturing an irrelevant IgG at similar density. A 1:1 Languir model of simultaneous fitting of kₒₙ and koff was used for kinetics analysis.

[2] = target: T1, human alpha-synuclein monomer; experiment: as above; remark: listed apart in the source
Description: as §1

[3] = target: T2, mouse alpha-synuclein (mouse, UniProt O55042 1-140); experiment: direct ELISA, plate coated with 1 µg/mL recombinant mouse alpha-synuclein, antibody titrated, anti-rat HRP, A450
Description: (§2) 96-well Nunc plates were coated with 50 μL of recombinant human, mouse, or rat alpha-synuclein at a concentration of 1 μg/mL in PBS at 4° C. overnight. The plates were then washed three times with PBST and blocked with PBS containing 3% BSA at room temperature for 1 hour. Purified antibody was diluted by serial dilution methods, from 10 μg/mL to 0.6 ng/mL, and 50 μL of the antibody solution was added to the alpha-synuclein-coated wells. The plates were incubated for 1 hour at room temperature, then washed three times with PBST. Secondary detection antibody (goat anti-rat HRP (obtained from Southern Biotech)) was added 50 μL/well, 1:5,000 diluted in BSA-PBS solution. Plates were incubated for 1 hour at room temperature, then washed three times with PBST. Plates were subsequently developed with 50 μL/well of TMB substrate (Thermo Fisher) and quenched with 50 μL/well of 1 N sulfuric acid. The signal was quantified on a BioTek® plate reader at A450.

[4] = target: T3, alpha-synuclein peptide 1-61 (human); experiment: peptide ELISA
T3 construct: synthetic peptide coated on plate
Description: (§3) 96-well Nunc plates were coated with 1 pg/mL of the indicated synthetic peptide in PBS 50 μL/well overnight. The plates were washed three times with PBST, then blocked with 150 μL of 3% BSA in PBS for 1 hour. Purified antibody was diluted by serial dilution methods, from 10 pg/mL to 0.6 ng/ml, and 50 μL of the antibody solution was added to the peptide-coated wells. The plates were incubated for 1 hour at room temperature, then washed three times with PBST. Secondary detection antibody, goat anti-rat HRP (obtained from Southern Biotech) 1:5,000 diluted in BSA-PBS, was added to a concentration of 50 μL/well. Plates were incubated for one hour and washed three times with PBST. Plates were then developed with 50 μL/well of TMB substrate (obtained from Thermo Fisher) and quenched with 50 μL/well of 1 N sulfuric acid. The signal was quantified on a BioTek® plate reader at A450.

[5] = target: T4, alpha-synuclein peptide 1-95 (human); experiment: peptide ELISA
T4 construct: synthetic peptide coated on plate
Description: as §3

[6] = target: human alpha-synuclein pre-formed fibrils (human, UniProt P37840 1-140); experiment: competition ELISA: fibrils titrated in solution against 0.6 nM antibody, free antibody read on aSyn-coated plate
Description: Purified antibody was probed with different concentrations of alpha-synuclein fibrils in solution, and the levels of unbound antibody were measured by ELISA analysis. In this experiment, 0.6 nM (0.1 μg/mL) of purified antibody was dissolved in phosphate-buffered saline (PBS) solution. […] The mixtures were gently shaken at room temperature for 1 hour to reach equilibrium. After that, these samples were transferred to an alpha-synuclein protein-coated ELISA plate and incubated for 5 minutes. During this short incubation, antibody that was not associated to antigen in the previous solution could instead bind onto the plate, and thus be quantified using a standard ELISA technique. By this means, it was possible to determine the amount of free antibody in the initial mixture with alpha-synuclein fibrils at indicated concentrations.

[7] = target: alpha-synuclein peptide 1-112 (human); experiment: ELISA, plate coated with the peptide or protein, antibody titrated, anti-rat HRP, A450
Description: as §3

[8] = target: T3, alpha-synuclein peptide 1-61; experiment: as above
Description: as §3

[9] = target: T2, mouse alpha-synuclein; experiment: as above
Description: as §3

[10] = target: T4, alpha-synuclein peptide 1-95; experiment: as above
Description: as §3

[11] = target: T1, human alpha-synuclein monomer; experiment: ELISA, coated human alpha-synuclein
[12] = target: T2, mouse alpha-synuclein; experiment: ELISA, coated mouse alpha-synuclein
Description: as §2

[13] = target: T5, rat alpha-synuclein (rat, UniProt P37377 1-140); experiment: direct ELISA on coated antigen;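 further: plates coated with recombinant human, mouse or rat alpha-synuclein, purified antibody titrated 10 µg/mL down to 0.6 ng/mL for 1 h, bound antibody detected by anti-rat HRP with TMB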
Description: as §2

[14] = target: T2, mouse alpha-synuclein; experiment: direct ELISA on coated antigen;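 further: plates coated with recombinant human, mouse or rat alpha-synuclein, purified antibody titrated 10 µg/mL down to 0.6 ng/mL for 1 h, bound antibody detected by anti-rat HRP with TMB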
Description: as §2

[15] = target: T1, human alpha-synuclein monomer; experiment: direct ELISA on coated antigen;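 further: plates coated with recombinant human, mouse or rat alpha-synuclein, purified antibody titrated 10 µg/mL down to 0.6 ng/mL for 1 h, bound antibody detected by anti-rat HRP with TMB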
Description: as §2

[16] = target: T6, alpha-synuclein peptide 95-140 (human); experiment: peptide ELISA, coated fragment
T6 construct: synthetic peptide coated on plate
Description: as §3

[17] = target: alpha-synuclein peptide 1-112 (human); experiment: peptide ELISA, coated fragment
Description: as §3

[18] = target: T7, alpha-synuclein peptide 61-140 (human); experiment: peptide ELISA, coated fragment
T7 construct: synthetic peptide coated on plate
Description: as §3

[19] = target: human alpha-synuclein oligomers (human, UniProt P37840 1-140); experiment: competition ELISA: oligomers titrated in solution against 0.6 nM antibody, free antibody read on aSyn-coated plate
Description: To measure the binding affinities of select antibodies toward oligomeric alpha-synuclein protein, purified antibodies were probed with different concentrations of human alpha-synuclein oligomers in solution, and the levels of unbound antibody were measured by ELISA analysis. In this experiment, 0.6 nM (0.1 pg/mL) of purified antibody was dissolved in phosphate-buffered saline (PBS) solution. […] The mixtures were gently shaken at room temperature for 1 hour to reach equilibrium. After that, these samples were transferred to an alpha-synuclein protein-coated ELISA plate, and antibody not bound to antigen in the previous solution was detected by direct ELISA.

[20] = target: T6, alpha-synuclein peptide 95-140; experiment: ELISA, plate coated with the peptide or protein, antibody titrated, anti-rat HRP, A450
Description: as §3

[21] = target: T3, alpha-synuclein peptide 1-61; experiment: as above; remark: listed apart in the source
Description: as §3

[22] = target: T2, mouse alpha-synuclein; experiment: as above; remark: listed apart in the source
Description: as §3

[23] = target: T1, human alpha-synuclein monomer; experiment: as above
Description: as §3

[24] = target: T4, alpha-synuclein peptide 1-95; experiment: as above; remark: listed apart in the source
Description: as §3

[25] = target: T7, alpha-synuclein peptide 61-140; experiment: as above
Description: as §3

[26] = target: T5, rat alpha-synuclein; experiment: direct ELISA, plate coated with 1 µg/mL recombinant rat alpha-synuclein, antibody titrated, anti-rat HRP, A450
Description: as §2

[27] = target: T1, human alpha-synuclein monomer; experiment: direct ELISA, plate coated with 1 µg/mL recombinant human alpha-synuclein, antibody titrated, anti-rat HRP, A450
Description: as §2

Row | Binder | Kd [2] [nM] | EC50 (read off the curve) [3] [µg/mL] | antibody concentration at which ELISA is positive [4] [ng/mL] | antibody concentration at which ELISA is positive [5] [ng/mL] | IC50 [6] [nM] | antibody concentration at which ELISA is positive [11] [ng/mL] | antibody concentration at which ELISA is positive [12] [ng/mL] | Bmax (O.D. at 450 nm) [13] [OD] | EC50 [13] [nM] | EC50 [14] [nM] | Bmax (O.D. at 450 nm) [15] [OD] | EC50 [15] [nM] | antibody concentration at which ELISA is positive [16] [ng/mL] | antibody concentration at which ELISA is positive [17] [ng/mL] | antibody concentration at which ELISA is positive [18] [ng/mL] | IC50 [19] [nM] | other results
1 | HC2_LC2 (antibody, V domains shown, humanized 20H4 IgG) VH: EVQLVESGGGLVQPGGSLRLSCAASGFTFSNAAMYWVRQAPGKGLELVSRIRTKPNNYATYHADSVKGRFTISRDNSKNTLYLQMNSLRAEDTAVYYCTADMATGDYWGQGTLVTVSS VL: DIQMTQSPSSLSASVGDRVTITCKASQNINKNLDWYQQKPGKAPKPLIYSTNNLQTGVPSRFSGSGSGTDFTLTISSLQPEDFATYYCYQYKSAWTFGQGTKVEIK | 2.33 |  |  |  |  |  |  |  |  |  |  |  |  |  |  |  | Kd [1]: 3.95 nM
2 | HC5_LC6 (antibody, V domains shown, humanized 20H4 IgG) VH: EVQLVESGGGLVQPGGSLRLSCAASGFTFSNAAMYWVRQAPGKGLELLARIRTKPNNYATYHADSVKGRFTISRDDSKNTVYLQMNSLRAEDTAVYYCTADMATGDYWGQGTLVTVSS VL: EIVMTQSPATLSLSPGERATLSCKASQNINKNLDWYQQKPGQAPRPLIYSTNNLQTGVPARFSGSGSGTDYTLTISSLQPEDFAVYYCYQYKSAWTFGQGTKVEIK | 2.78 |  |  |  |  |  |  |  |  |  |  |  |  |  |  |  | 
3 | 22E11 (antibody, IgG1, V domains shown, also called clone 22E11) VH: AVQLVESGGGLVQPKESLKISCAASGFTFSTAAMYWVRQAPGKGLEWVTRIRTKPNNYATYYADSVKGRFTISRDDSKSMVYLQMDNLKTEDTAMYYCTADYYDGTPFAYWGQGTLVTVSS VL: AVVMTQTPVSLSVSLGGQVSISCRSSQSLVHNNGITYLSWYLQKPGQSPQLPIYKVSNRFSGFSDRFSGGGSGTDFTLKISRVEPDDLGLYYCGQGTQYPYTFGAGTKLELK |  | ~0.3 | > 2600 | > 2600 | 28.1 | < 40 | 40 to 160 | 0.5 | 1 | 0.26 | 1.05 | 0.4 | < 40 | 160 to 640 | < 40 | 6.96 | EC50 (read off the curve) [7]: ~0.3 µg/mL; binding result [8]: no binding (tested: 10 µg/ml (1 on the log axis)); EC50 (read off the curve) [9]: ~0.3 µg/mL; binding result [10]: no binding (tested: 10 µg/ml (1 on the log axis)); Bmax (O.D. at 450 nm) [14]: 0.58 OD
4 | 18B4 (antibody, IgG2b, V domains shown, also called clone 18B4) VH: EVQLVESGGGLVQPGRSLKLSCAASGFTFSSFAMAWVRQAPKKGLEWVATITSGGSKTYYPDSVKGRFTISRDNAKSTLYLQMDSLRSEDTATYYCAKGYFDYWGQGVMVTVSS VL: DVVLTQTPPTLSATIGQSVSISCRSSQSLLHSNGNTYLHWLLQRPGQSPQLLIYLVSRLESGVPNRFSGSGSGTDFTLKISGVEAEDLGVYYCVQGTHAPLTFGSGTKLEIK |  | ~0.08 | > 2600 | > 2600 | 85.7 | < 40 | 40 to 160 | 1.21 | 0.3 | 0.08 | 1.36 | 0.05 | < 40 | 160 to 640 | < 40 | 37.6 | EC50 (read off the curve) [20]: ~0.07 µg/mL; binding result [21]: no binding (tested: 10 µg/ml (1 on the log axis)); EC50 (read off the curve) [22]: ~0.08 µg/mL; EC50 (read off the curve) [23]: ~0.06 µg/mL; binding result [24]: no binding (tested: 10 µg/ml (1 on the log axis)); EC50 (read off the curve) [25]: ~0.08 µg/mL; EC50 (read off the curve) [26]: ~0.4 µg/mL; EC50 (read off the curve) [27]: ~0.06 µg/mL
